Experimental data: the supplement of paper PMC9876800

Tested on: peptide library, one residue held at a place counted from the S/T acceptor
Assay: relative phosphorylation of the sub-library (ratio to the mean residue at this position); higher = residue favoured
Conditions: human
Outline: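 In 384-well plates, purified recombinant kinases (human or orthologue constructs) were incubated for 90 min under kinase-specific conditions with 50 μM biotinylated degenerate peptide sub-libraries and 50 μM ATP spiked with γ-32P-ATP. Each sub-library fixed a single residue at one position around a central Ser/Thr. Relative sub-library phosphorylation, measured by phosphorimaging and densitometry of streptavidin membrane spots, is given as a ratio to the mean residue at that position.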

Chain of IRAK1, construct: aa186-530 (P51617 186-530, looked up): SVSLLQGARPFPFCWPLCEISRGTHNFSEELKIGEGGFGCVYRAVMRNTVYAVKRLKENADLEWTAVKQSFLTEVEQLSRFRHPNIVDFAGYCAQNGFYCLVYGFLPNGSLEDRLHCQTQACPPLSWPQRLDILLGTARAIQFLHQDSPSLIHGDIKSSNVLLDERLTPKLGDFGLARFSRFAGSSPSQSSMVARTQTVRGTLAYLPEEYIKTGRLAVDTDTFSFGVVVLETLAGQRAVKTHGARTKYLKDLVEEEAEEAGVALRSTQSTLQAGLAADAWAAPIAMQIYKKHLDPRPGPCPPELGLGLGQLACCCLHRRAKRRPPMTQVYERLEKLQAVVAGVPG
Chain of LATS1, construct: aa589-end (O95835 589-1130, looked up): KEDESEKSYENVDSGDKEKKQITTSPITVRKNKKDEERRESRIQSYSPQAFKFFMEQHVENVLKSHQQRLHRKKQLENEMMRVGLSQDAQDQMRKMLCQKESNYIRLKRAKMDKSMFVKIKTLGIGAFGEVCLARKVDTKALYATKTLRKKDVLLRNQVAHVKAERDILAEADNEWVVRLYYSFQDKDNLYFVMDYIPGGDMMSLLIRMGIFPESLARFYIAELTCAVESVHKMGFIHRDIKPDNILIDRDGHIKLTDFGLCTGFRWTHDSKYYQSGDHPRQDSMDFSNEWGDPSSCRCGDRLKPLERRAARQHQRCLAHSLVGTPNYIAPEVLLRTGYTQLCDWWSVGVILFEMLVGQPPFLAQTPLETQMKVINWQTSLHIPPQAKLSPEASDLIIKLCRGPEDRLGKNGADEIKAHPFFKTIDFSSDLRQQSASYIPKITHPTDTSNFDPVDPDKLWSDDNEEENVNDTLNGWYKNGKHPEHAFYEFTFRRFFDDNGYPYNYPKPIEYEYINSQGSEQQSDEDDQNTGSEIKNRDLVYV

IRAK1, construct: aa186-530 (from UniProt P51617)
relative phosphorylation
Conditions	at +1	at +2	at +3	at +4	at -1	at -2	at -3	at -4	at -5
A fixed	0.864	0.732	0.528	0.839	0.549	1.22	1.05	0.838	0.984
D fixed	0.289	0.355	0.361	0.391	0.359	0.433	0.405	0.63	0.557
E fixed	0.435	1.03	0.316	0.501	0.236	0.423	0.57	0.668	0.629
F fixed	1.34	0.929	1.71	0.843	1.69	1.07	1.02	1.17	1.09
G fixed	1.28	0.501	0.55	0.766	0.4	0.801	0.874	0.846	1.01
H fixed	0.703	1.2	0.889	1.13	1.34	1.12	1.55	1.08	1.3
I fixed	2.14	2.49	1.84	1.27	0.864	1.08	1.19	1.29	1.38
K fixed	0.885	0.442	0.719	1.32	0.789	0.64	1.02	1.06	1.01
L fixed	1.25	0.867	1.22	1.13	0.847	1.67	1.11	1.09	0.973
M fixed	1.59	1.07	1.56	1.17	1.02	1.78	1.43	1.08	1.12
N fixed	0.604	0.781	0.558	0.806	0.776	1.47	0.918	1.33	0.973
P fixed	0.159	0.336	0.221	0.969	0.287	0.495	0.464	0.559	0.696
Q fixed	1.08	0.734	0.567	0.766	0.527	0.957	0.954	0.813	0.845
R fixed	1.05	0.633	1.04	1.75	1.53	1.16	1.5	0.988	1.29
V fixed	1.69	1.95	1.07	0.745	0.863	0.788	0.849	1.16	1.07
W fixed	0.854	1.37	2.17	1.54	2.85	0.745	0.9	1.11	0.809
Y fixed	0.799	1.58	1.69	1.06	2.08	1.13	1.21	1.27	1.27
pThr fixed	0.544	0.539	0.403	0.473	0.484	0.857	0.765	1.09	0.722
pTyr fixed	0.357	0.562	0.482	0.464	0.522	0.756	1.19	0.831	0.843

LATS1, construct: aa589-end (from UniProt O95835)
relative phosphorylation
Conditions	at +1	at +2	at +3	at +4	at -1	at -2	at -3	at -4	at -5
A fixed	0.659	0.785	0.976	0.856	0.615	0.872	0.639	1.08	0.8
D fixed	1.01	1.11	1.46	1.45	1.88	1.91	1.24	0.946	1.01
E fixed	1.3	2.1	1.28	1.52	0.865	1.3	0.564	0.822	0.706
F fixed	0.776	0.66	0.867	0.785	0.27	0.756	0.375	0.839	0.611
G fixed	0.751	0.85	1.17	1.34	1.3	0.893	0.853	1.04	1.09
H fixed	0.946	1.2	1.03	1.22	0.891	0.974	1.2	1.6	4.19
I fixed	0.957	1.34	0.784	0.743	0.21	0.298	0.257	0.481	0.476
K fixed	1.23	0.623	1.27	0.844	2.38	1.36	1.78	1.15	0.971
L fixed	1.46	1.29	0.961	0.707	0.438	0.373	0.312	0.62	0.52
M fixed	1.8	0.941	0.791	0.994	0.667	0.692	0.427	0.8	0.74
N fixed	0.907	1.12	0.955	1.26	1.2	1.08	0.765	0.939	0.868
P fixed	0.648	0.816	1.08	0.982	3.01	0.99	2.34	1.42	0.834
Q fixed	0.91	0.846	0.941	0.924	1.02	1.41	0.705	1.02	0.718
R fixed	0.683	1.21	0.645	0.755	0.915	1.79	3.7	1.19	1.15
V fixed	0.797	0.771	0.902	0.647	0.294	0.359	0.326	0.61	0.613
W fixed	1.26	0.585	1.06	0.907	0.436	0.969	0.708	1.5	0.842
Y fixed	0.9	0.754	0.827	1.07	0.604	0.978	0.824	0.931	0.863
pThr fixed	1.2	1.09	1.2	2.38	0.769	0.586	0.536	0.599	0.598
pTyr fixed	0.854	0.716	0.789	1.15	0.411	0.431	0.542	0.578	0.613

MAP3K5, construct: aa659-951 (from UniProt Q99683)
relative phosphorylation
Conditions	at +1	at +2	at +3	at +4	at -1	at -2	at -3	at -4	at -5
A fixed	0.385	0.72	0.897	0.901	0.825	1.66	1.44	1.09	1.01
D fixed	0.255	0.881	0.707	0.815	0.699	0.504	0.689	0.908	0.899
E fixed	0.344	0.473	0.652	0.812	0.685	0.471	0.738	0.906	0.815
F fixed	2	1.32	1.22	0.964	1.08	0.77	0.826	1.04	1.17
G fixed	0.324	0.521	0.951	0.926	1.58	1.12	0.979	1.08	1.28
H fixed	1.1	1.06	1.04	1.12	1.06	0.985	1.24	1.02	1.19
I fixed	2.04	0.648	1.01	0.717	0.507	1.12	0.905	0.897	0.75
K fixed	0.375	1.08	1.04	1.88	1.13	0.61	1.02	0.913	1.13
L fixed	1.33	0.806	1.03	0.943	0.993	1.12	1.01	0.827	0.747
M fixed	0.894	0.812	1.06	0.877	1.06	1.17	0.894	1.04	0.88
N fixed	0.382	0.615	0.793	0.743	1.04	1.36	0.989	0.807	0.792
P fixed	0.352	0.543	1.03	1.02	1.07	1.22	1.36	1.22	1.41
Q fixed	0.498	0.64	0.806	0.89	0.775	0.987	1	1.01	0.919
R fixed	0.401	1.34	1.31	1.5	1.6	0.941	1.04	0.965	1.08
V fixed	1.78	0.645	1.01	0.723	0.54	1.09	0.835	1.12	0.836
W fixed	1.97	1.32	1.14	1.33	0.981	0.777	1.12	1.08	0.996
Y fixed	2.56	3.57	1.29	0.846	1.37	1.09	0.904	1.07	1.09
pThr fixed	0.556	0.528	0.673	0.597	0.672	0.847	0.914	0.985	1
pTyr fixed	0.623	0.518	0.863	0.704	1.47	0.793	0.884	1.04	1.24
